In patent US20250051413A1 (ASKGENE PHARMA, published 2025):

Molecular target: human IL-12 receptor (b1 and b2 chain) (human, UniProt P42701 24-662; Q99665 24-862)
Test: cell-based or functional assay

Chain of human IL-12 receptor (b1 and b2 chain) (Q99665 24-862, chain 2 of 2, other chains not shown): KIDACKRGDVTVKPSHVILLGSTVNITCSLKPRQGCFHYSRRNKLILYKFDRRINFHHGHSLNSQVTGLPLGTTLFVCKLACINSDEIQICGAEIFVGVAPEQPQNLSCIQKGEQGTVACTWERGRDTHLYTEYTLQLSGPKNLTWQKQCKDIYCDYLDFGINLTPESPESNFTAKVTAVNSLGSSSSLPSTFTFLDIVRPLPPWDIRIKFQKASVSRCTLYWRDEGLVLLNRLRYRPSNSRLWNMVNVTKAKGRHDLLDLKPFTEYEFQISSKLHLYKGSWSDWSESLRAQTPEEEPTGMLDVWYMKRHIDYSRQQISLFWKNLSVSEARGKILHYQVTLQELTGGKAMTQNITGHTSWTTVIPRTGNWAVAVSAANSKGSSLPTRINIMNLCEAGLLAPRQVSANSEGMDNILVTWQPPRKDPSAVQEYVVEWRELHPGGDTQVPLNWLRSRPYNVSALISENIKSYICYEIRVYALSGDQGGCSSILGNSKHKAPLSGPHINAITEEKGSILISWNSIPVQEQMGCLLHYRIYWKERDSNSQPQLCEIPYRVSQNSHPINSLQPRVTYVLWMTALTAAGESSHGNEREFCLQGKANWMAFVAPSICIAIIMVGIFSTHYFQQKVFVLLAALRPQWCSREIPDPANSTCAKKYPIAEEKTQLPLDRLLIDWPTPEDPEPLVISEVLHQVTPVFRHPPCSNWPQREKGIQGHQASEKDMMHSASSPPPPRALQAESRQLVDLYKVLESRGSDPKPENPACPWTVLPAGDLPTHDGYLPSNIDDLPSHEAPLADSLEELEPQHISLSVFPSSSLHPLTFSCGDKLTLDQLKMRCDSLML

B1: ASKG129C (Fc fusion)
chain 1: QVQLVQSGVEVKKPGASVKVSCKASGYTFTNYYMYWVRQAPGQGLEWMGGINPSNGGTNFNEKFKNRVTLTTDSSTTTAYMELKSLQFDDTAVYYCARRDYRFDMGFDYWGQGTTVTVSSASTKGPSVFPLAPSSKSTSGGTAALGCLVKDYFPEPVTVSWNSGALTSGVHTFPAVLQSSGLYSLSSVVTVPSSSLGTQTYICNVNHKPSNTKVDKKAEPKSCDKTHTCPPCPAPEAAGAPSVFLFPPKPKDTLYITREPEVTCVVVDVSHEDPEVKFNWYVDGVEVHNAKTKPREEQYNSTYRVVSVLTVLHQDWLNGKEYKCKVSNKALPAPIEKTISKAKGQPREPQVYTLPPSREEMTKNQVSLTCLVKGFYPSDIAVEWESNGQPENNYKTTPPVLDSDGSFFLYSKLTVDKSRWQQGNVFSCSVMHEALHNHYTQKSLSLSPGGGGSGGGGSAAGGGGSGGGGSDIQMTQSPSSLSASVGDRVTITCRASQGISSWLAWYQQKPEKAPKSLIYAASSLQSGVPSRFSGSGSGTDFTLTISSLQPEDFATYYCQQYNIYPYTFGQGTKLEIKSGGGGSGGGGSGGGGSEVQLVQSGAEVKKPGESLKISCKGSGYSFTTYWLGWVRQMPGKGLDWIGIMSPVDSDIRYSPSFQGQVTMSVDKSITTAYLQWNSLKASDTAMYYCARRRPGQGYFDFWGQGTLVTVSS
chain 2: EVQLVESGGGLVQPGGSLRLSCAASGYTVSSYCMGWFRQAPGKGREGVSAIDSDGSVSYADSVKGRFTISKDNSKNTLYLQMNSLRAEDTAVYFCAADLCWVDQDQGEYNTWGQGTLVTVSSGSEPKSSDKTHTCPPCPAPEAAGGPSVFLFPPKPKDTLYITREPEVTCVVVDVSHEDPEVKFNWYVDGVEVHNAKTKPREEQYNSTYRVVSVLTVLHQDWLNGKEYKCKVSNKALPAPIEKTISKAKGQPREPQVYTLPPSREEMTKNQVSLTCLVKGFYPSDIAVEWESNGQPENNYKTTPPVLDSDGSFFLYSKLTVDKSRWQQGNVFSCSVMHEALHNHYTQKSLSLSPGGGGSGGGGSAAGGGGSGGGGSDIQMTQSPSSLSASVGDRVTITCRASQGISSWLAWYQQKPEKAPKSLIYAASSLQSGVPSRFSGSGSGTDFTLTISSLQPEDFATYYCQQYNIYPYTFGQGTKLEIKSGGGGSGGGGSGGGGSEVQLVQSGAEVKKPGESLKISCKGSGYSFTTYWLGWVRQMPGKGLDWIGIMSPVDSDIRYSPSFQGQVTMSVDKSITTAYLQWNSLKASDTAMYYCARRRPGQGYFDFWGQGTLVTVSS
Question: What does the source list for B1?
Answer: EC50 of p-STAT4 induction in human PBMC, CD4+ T cells: 2.52 nM; EC50 of p-STAT4 induction in human PBMC, CD8+ T cells: 2.09 nM; EC50 of p-STAT4 induction in human PBMC, NK cells: 3.75 nM; fold decrease in cytokine releasing assay with human PBMC, activity relative to IL-12: ~1000 times
